The results in this text go back to PMC4169579, “Proteolytic Activity of Prostate-Specific Antigen (PSA) towards Protein Substrates and Effect of Peptides Stimulating PSA Activity” (PLoS ONE, 2014).

The target in assay [1] is T1, Prostate-specific antigen (PSA or kallikrein-related peptidase-3, KLK3), major form of active PSA (isoform … (human, UniProt P07288 25-261)). Nature of the assay: cell-based or functional assay.
The target in assay [2] is T1, Prostate-specific antigen (PSA or …). Nature of the assay: SPR; Biacore T100; PSA amine-coupled to a CM5 chip (2000-3900 RU); alpha-chymotrypsin surface as reference, subtracted; peptides 1.2-600 uM flowed in PBS pH 7.4 (6.7 mM PO4, 0.15 M NaCl), 40 ul/min, 25 C, contact 60 s, dissociation 180 s; Steady State Affinity model. The following applies: both partners purified. (In general: Surface plasmon resonance follows binding to a sensor surface in real time, without labels.)

Broadly, the Kd is the free concentration of one partner at which half of the binding sites on the other are occupied at equilibrium, for simple one-to-one binding. Higher therefore signals a looser complex.

Positions of bridges follow the written chain, without caps; N, C: chain ends. No end group written: not given here.

T1 sequence (P07288 25-261): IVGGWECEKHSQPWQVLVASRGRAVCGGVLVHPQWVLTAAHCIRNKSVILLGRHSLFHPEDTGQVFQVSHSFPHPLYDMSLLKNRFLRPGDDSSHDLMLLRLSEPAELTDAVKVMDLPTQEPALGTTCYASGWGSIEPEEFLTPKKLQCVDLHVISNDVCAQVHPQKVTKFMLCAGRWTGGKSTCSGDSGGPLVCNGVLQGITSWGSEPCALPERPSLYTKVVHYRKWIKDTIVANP

In the case of CVAYCIEHHCWTC (disulfide 1-13, 5-10) [13-amino acid double cyclic peptide C4], in assay [1], the “[peptide]2V: peptide concentration with two-fold stimulation of PSA activity, chromogenic substrate S-2586” value turned out to be 1.55 µM and the “[peptide]2V: peptide concentration with two-fold stimulation of PSA activity, fluorogenic substrate 4-morpholinecarbonyl-HSSKLQ-AMC” value was 1.36 µM.

B1: 12-amino acid cyclic peptide B2 with C-terminal amidation (B2-NH2) (peptide)
peptide: CVFAHNYDYLVC-NH2
modifications: disulfide 1-12; N-terminus assumed
SMILES: CC(C)C[C@@H]1NC(=O)[C@H](Cc2ccc(O)cc2)NC(=O)[C@H](CC(=O)O)NC(=O)[C@H](Cc2ccc(O)cc2)NC(=O)[C@H](CC(N)=O)NC(=O)[C@H](Cc2c[nH]cn2)NC(=O)[C@H](C)NC(=O)[C@H](Cc2ccccc2)NC(=O)[C@H](C(C)C)NC(=O)[C@@H](N)CSSC[C@@H](C(N)=O)NC(=O)[C@H](C(C)C)NC1=O
notes: cyclic; purity over 95% by HPLC; source: synthetic peptide, bought as custom peptide (AnaSpec, NeoMPS, Biomatik or GenScript)
Regarding B1, in assay [1], the “[peptide]2V: peptide concentration with two-fold stimulation of PSA activity, chromogenic substrate S-2586” value worked out at 3.33 µM and the “[peptide]2V: peptide concentration with two-fold stimulation of PSA activity, fluorogenic substrate 4-morpholinecarbonyl-HSSKLQ-AMC” value turned out to be 2.94 µM. Also, the dissociation constant (Kd) in assay [2] was 56.5 µM.

B2: 12-amino acid cyclic peptide B2 (without C-terminal amidation) (peptide)
peptide: CVFAHNYDYLVC-OH
modifications: disulfide 1-12; N-terminus assumed
SMILES: CC(C)C[C@@H]1NC(=O)[C@H](Cc2ccc(O)cc2)NC(=O)[C@H](CC(=O)O)NC(=O)[C@H](Cc2ccc(O)cc2)NC(=O)[C@H](CC(N)=O)NC(=O)[C@H](Cc2c[nH]cn2)NC(=O)[C@H](C)NC(=O)[C@H](Cc2ccccc2)NC(=O)[C@H](C(C)C)NC(=O)[C@@H](N)CSSC[C@@H](C(=O)O)NC(=O)[C@H](C(C)C)NC1=O
notes: as for B1
In assay [2], B2 had a Kd of 73.6 µM. This counts as double-digit micromolar.
